Molecular target: GST-importin α5 (aa 400–538) (human, UniProt P52294 400-538)
Experiment: SPR

Chain of GST-importin α5 (aa 400–538) (P52294 400-538): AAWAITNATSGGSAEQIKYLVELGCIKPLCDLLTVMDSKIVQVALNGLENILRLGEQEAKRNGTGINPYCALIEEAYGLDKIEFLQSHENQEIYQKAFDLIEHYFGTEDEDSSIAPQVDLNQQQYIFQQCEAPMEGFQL

binding result	Kd [nM]	Binder
binds		HLQLKEQKNA [STAT1 NLS peptide]
	2.67	KEREKKREKEEKKRLELEKKEQKEKEKKEQEIKKK [ADAP NLS1 peptide]
	2.38	KAKTEEKDLKKLKKQEKEEKDFRKKFK [ADAP NLS2 peptide]
